Measurements published in the Immune Epitope Database (IEDB).

Experiments:
Test in all cases: IEDB peptide-MHC binding, purified MHC/competitive/radioactivity; filed as Kd, often an IC50 or EC50 that approximates it; ≥ and ≤ were set here for values at or beyond the usual limits of such assays
HLA-A*01:01 = target: HLA-A*01:01
HLA-A*23:01 = target: HLA-A*23:01
HLA-A*30:02 = target: HLA-A*30:02
HLA-A*24:02 = target: HLA-A*24:02
HLA-A*29:02 = target: HLA-A*29:02
HLA-A*26:01 = target: HLA-A*26:01
HLA-B*53:01 = target: HLA-B*53:01
HLA-B*07:02 = target: HLA-B*07:02
HLA-A*30:01 = target: HLA-A*30:01
HLA-A*32:01 = target: HLA-A*32:01
HLA-A*68:01 = target: HLA-A*68:01
HLA-A*31:01 = target: HLA-A*31:01
HLA-A*03:01 = target: HLA-A*03:01
HLA-A*11:01 = target: HLA-A*11:01
HLA-A*68:02 = details: source organism: Dengue virus 3 Sri Lanka/1266/2000
HLA-B*35:01 = details: source organism: Dengue virus 4 Philippines/H241/1956
HLA-A*33:01 = details: source organism: Vaccinia virus WR
[1] = source organism: SARS coronavirus Tor2
[2] = source organism: Dengue virus 3 Martinique/1243/1999
[3] = source organism: Vaccinia virus WR
[4] = source organism: Mammarenavirus juninense
[5] = source organism: Lymphocytic choriomeningitis virus (strain Armstrong)
[6] = source organism: Dengue virus 1 Singapore/S275/1990
[7] = source organism: Mammarenavirus mopeiaense
[8] = source organism: Dengue virus 1 Brazil/97-11/1997
[9] = source organism: Dengue virus 4 Philippines/H241/1956
[10] = source organism: Dengue virus 3 Sri Lanka/1266/2000
[11] = source organism: Mammarenavirus brazilense

## VMPVHTLSI
HLA-A*01:01; [1]
  Kd: ≥ 78.1 µM
HLA-A*23:01; [1]
  Kd: 0.109 µM
HLA-A*30:02; [1]
  Kd: 4.57 µM
HLA-A*24:02; [1]
  Kd: 0.0472 µM
HLA-A*29:02; [1]
  Kd: 0.141 µM
HLA-A*26:01; [1]
  Kd: ≥ 20.7 µM

## LDESFLGRY
HLA-A*01:01; [1]
  Kd: 2.61 µM
HLA-A*23:01; [1]
  Kd: ≥ 77.8 µM
HLA-A*30:02; [1]
  Kd: 0.163 µM
HLA-A*24:02; [1]
  Kd: ≥ 77.6 µM
HLA-A*29:02; [1]
  Kd: 1.54 µM
HLA-A*26:01; [1]
  Kd: 12.7 µM

## LPEYGTLGL
HLA-B*53:01; [2]
  Kd: 0.545 µM
HLA-B*07:02; [2]
  Kd: 0.0401 µM

## LFLAFVVFL
HLA-A*01:01; [1]
  Kd: 0.812 µM
HLA-A*23:01; [1]
  Kd: 1.88 µM
HLA-A*30:02; [1]
  Kd: ≥ 34.3 µM
HLA-A*24:02; [1]
  Kd: ≥ 29.9 µM
HLA-A*29:02; [1]
  Kd: 7.98 µM
HLA-A*26:01; [1]
  Kd: 0.571 µM

## KYKPVYSYV
HLA-A*30:01; [3]
  Kd: 0.00074 µM

## EDAMPGVLSY
HLA-A*01:01; [4]
  Kd: 10.6 µM
HLA-A*30:01; [4]
  Kd: ≥ 70.4 µM
HLA-A*23:01; [4]
  Kd: 16.4 µM
HLA-A*30:02; [4]
  Kd: 15.5 µM
HLA-A*24:02; [4]
  Kd: ≥ 46.4 µM
HLA-A*32:01; [4]
  Kd: ≥ 69.9 µM
HLA-A*29:02; [4]
  Kd: 11.1 µM
HLA-A*26:01; [4]
  Kd: 1.81 µM

## YEDQDALFAY
HLA-A*01:01; [1]
  Kd: ≥ 92.6 µM
HLA-A*23:01; [1]
  Kd: ≥ 70 µM
HLA-A*30:02; [1]
  Kd: 2.03 µM
HLA-A*24:02; [1]
  Kd: ≥ 70.3 µM
HLA-A*29:02; [1]
  Kd: 0.53 µM
HLA-A*26:01; [1]
  Kd: ≥ 64.8 µM

## DSEEYHLLY
HLA-A*01:01; [5]
  Kd: 0.00278 µM
HLA-A*30:01; [5]
  Kd: 11.3 µM
HLA-A*30:02; [5]
  Kd: 3.75 µM
HLA-A*32:01; [5]
  Kd: ≥ 77.8 µM
HLA-A*29:02; [5]
  Kd: 0.289 µM
HLA-A*26:01; [5]
  Kd: 14.4 µM

## QFIHFYREPV
HLA-A*01:01; [5]
  Kd: ≥ 41.3 µM
HLA-A*23:01; [5]
  Kd: ≥ 69.5 µM
HLA-A*30:02; [5]
  Kd: 5.15 µM
HLA-A*24:02; [5]
  Kd: ≥ 70.3 µM
HLA-A*29:02; [5]
  Kd: ≥ 39.4 µM
HLA-A*26:01; [5]
  Kd: ≥ 69.7 µM

## APALQEAYY
HLA-A*01:01; [1]
  Kd: ≥ 109 µM
HLA-A*23:01; [1]
  Kd: ≥ 77.8 µM
HLA-A*30:02; [1]
  Kd: 0.365 µM
HLA-A*24:02; [1]
  Kd: ≥ 77.6 µM
HLA-A*29:02; [1]
  Kd: 1.99 µM
HLA-A*26:01; [1]
  Kd: ≥ 65.6 µM

## LGSLGCKPLT
HLA-A*30:01; [6]
  Kd: 1.41 µM

## LYLTQDLFL
HLA-A*01:01; [1]
  Kd: ≥ 20.4 µM
HLA-A*23:01; [1]
  Kd: ≥ 81.7 µM
HLA-A*30:02; [1]
  Kd: ≥ 81.1 µM
HLA-A*24:02; [1]
  Kd: ≥ 70.3 µM
HLA-A*29:02; [1]
  Kd: ≥ 71.9 µM
HLA-A*26:01; [1]
  Kd: ≥ 34 µM

## VFSAVGNICY
HLA-A*01:01; [1]
  Kd: 0.0605 µM
HLA-A*23:01; [1]
  Kd: 15.4 µM
HLA-A*30:02; [1]
  Kd: 0.0138 µM
HLA-A*24:02; [1]
  Kd: 7.13 µM
HLA-A*29:02; [1]
  Kd: 0.0283 µM
HLA-A*26:01; [1]
  Kd: 1.28 µM

## TYASALWEI
HLA-A*01:01; [1]
  Kd: ≥ 78.1 µM
HLA-A*23:01; [1]
  Kd: 8.14 µM
HLA-A*30:02; [1]
  Kd: ≥ 81.1 µM
HLA-A*24:02; [1]
  Kd: ≥ 21.5 µM
HLA-A*29:02; [1]
  Kd: 14.2 µM
HLA-A*26:01; [1]
  Kd: ≥ 77.9 µM

## YLALYNKYKY
HLA-A*01:01; [1]
  Kd: 0.244 µM
HLA-A*23:01; [1]
  Kd: 11.6 µM
HLA-A*30:02; [1]
  Kd: 0.0345 µM
HLA-A*24:02; [1]
  Kd: 18.6 µM
HLA-A*29:02; [1]
  Kd: 0.0432 µM
HLA-A*26:01; [1]
  Kd: 19.2 µM

## TSSMRGVYY
HLA-A*01:01; [1]
  Kd: 0.0693 µM
HLA-A*23:01; [1]
  Kd: ≥ 77.8 µM
HLA-A*30:02; [1]
  Kd: 0.124 µM
HLA-A*24:02; [1]
  Kd: ≥ 77.6 µM
HLA-A*29:02; [1]
  Kd: 0.263 µM
HLA-A*26:01; [1]
  Kd: 8.3 µM

## QYVRSGKDHV
HLA-A*01:01; [5]
  Kd: ≥ 70.4 µM
HLA-A*23:01; [5]
  Kd: ≥ 50.2 µM
HLA-A*30:02; [5]
  Kd: 1.44 µM
HLA-A*24:02; [5]
  Kd: ≥ 70.3 µM
HLA-A*29:02; [5]
  Kd: ≥ 71.4 µM
HLA-A*26:01; [5]
  Kd: ≥ 69.7 µM

## TPTGTVMDII
HLA-B*07:02; [2]
  Kd: 0.219 µM

## MSKSHAAYI
HLA-A*30:01; [3]
  Kd: 0.000227 µM

## SYREAACCHL
HLA-A*01:01; [1]
  Kd: ≥ 25.1 µM
HLA-A*23:01; [1]
  Kd: 0.643 µM
HLA-A*30:02; [1]
  Kd: 7.04 µM
HLA-A*24:02; [1]
  Kd: 0.221 µM
HLA-A*29:02; [1]
  Kd: ≥ 28.9 µM
HLA-A*26:01; [1]
  Kd: ≥ 69.7 µM

## PYIASRTSIV
HLA-A*01:01; [7]
  Kd: ≥ 44.5 µM
HLA-A*23:01; [7]
  Kd: 1.59 µM
HLA-A*30:02; [7]
  Kd: ≥ 37.3 µM
HLA-A*24:02; [7]
  Kd: 2.5 µM
HLA-A*29:02; [7]
  Kd: ≥ 32.6 µM
HLA-A*26:01; [7]
  Kd: ≥ 69.7 µM

## TFKTAHAKK
HLA-A*30:01; [8]
  Kd: 0.0994 µM

## KTFDTEYPK
HLA-A*68:01; [9]
  Kd: 0.104 µM
HLA-A*30:01; [9]
  Kd: 0.08 µM
HLA-A*31:01; [9]
  Kd: 0.0298 µM
HLA-A*03:01; [9]
  Kd: 0.0261 µM
HLA-A*11:01; [9]
  Kd: 0.126 µM
HLA-A*32:01; [9]
  Kd: 2.8 µM

## KADRVIDPRR
HLA-A*30:01; [2]
  Kd: 5.18 µM

## TVAAMGVPPL
HLA-A*68:02
  Kd: 0.0198 µM
HLA-A*30:01; [10]
  Kd: 3.21 µM
HLA-A*26:01; [10]
  Kd: 12.2 µM

## VKIPTHRHI
HLA-A*01:01; [5]
  Kd: ≥ 78.1 µM
HLA-A*23:01; [5]
  Kd: ≥ 77.7 µM
HLA-A*30:02; [5]
  Kd: ≥ 76.9 µM
HLA-A*24:02; [5]
  Kd: ≥ 77.5 µM
HLA-A*29:02; [5]
  Kd: 15.4 µM
HLA-A*26:01; [5]
  Kd: ≥ 77.9 µM

## KTGESSRCY
HLA-A*01:01; [5]
  Kd: 7.28 µM
HLA-A*30:01; [5]
  Kd: 3.52 µM
HLA-A*30:02; [5]
  Kd: 0.101 µM
HLA-A*32:01; [5]
  Kd: ≥ 77.8 µM
HLA-A*29:02; [5]
  Kd: 4.38 µM
HLA-A*26:01; [5]
  Kd: ≥ 77.9 µM

## TADDITMGY
HLA-A*01:01; [11]
  Kd: 0.0188 µM
HLA-A*30:01; [11]
  Kd: ≥ 78.1 µM
HLA-A*30:02; [11]
  Kd: 9.93 µM
HLA-A*32:01; [11]
  Kd: ≥ 77.8 µM
HLA-A*29:02; [11]
  Kd: 11.3 µM
HLA-A*26:01; [11]
  Kd: 4.7 µM

## TPKAKRGTAQ
HLA-B*07:02; [6]
  Kd: 1.41 µM

## TARGARRMA
HLA-A*30:01; [8]
  Kd: 6.3 µM

## AAKGASMTL
HLA-A*30:01; [3]
  Kd: 0.000998 µM

## TPEGIIPTLF
HLA-B*53:01; [9]
  Kd: 0.0381 µM
HLA-B*35:01
  Kd: 0.0935 µM
HLA-B*07:02; [9]
  Kd: 0.92 µM

## LARRPTPKK
HLA-A*68:01; [3]
  Kd: 0.43 µM
HLA-A*33:01
  Kd: 19.3 µM
HLA-A*30:01; source organism: Vaccinia virus Copenhagen
  Kd: 0.0104 µM
HLA-A*31:01; [3]
  Kd: 0.0704 µM
HLA-A*03:01; [3]
  Kd: 0.185 µM
HLA-A*11:01; [3]
  Kd: 0.431 µM

## HQHLAIMFK
HLA-A*30:01; [3]
  Kd: 0.00499 µM

## APSTGSASSM
HLA-B*35:01
  Kd: 0.377 µM
HLA-B*07:02; [9]
  Kd: 0.0193 µM
